In paper doi:10.1101/2020.12.08.415398 (bioRxiv, 2020):
Where two headings read alike, the source gives them in different places.

How the values were obtained:
[1] = target: T1, GPR133 (ADGRD1) C-terminal fragment (CTF) with C-terminal TwinStrep tag, from C-terminally tagged wild-type … (human); assay: pull-down
T1 chain: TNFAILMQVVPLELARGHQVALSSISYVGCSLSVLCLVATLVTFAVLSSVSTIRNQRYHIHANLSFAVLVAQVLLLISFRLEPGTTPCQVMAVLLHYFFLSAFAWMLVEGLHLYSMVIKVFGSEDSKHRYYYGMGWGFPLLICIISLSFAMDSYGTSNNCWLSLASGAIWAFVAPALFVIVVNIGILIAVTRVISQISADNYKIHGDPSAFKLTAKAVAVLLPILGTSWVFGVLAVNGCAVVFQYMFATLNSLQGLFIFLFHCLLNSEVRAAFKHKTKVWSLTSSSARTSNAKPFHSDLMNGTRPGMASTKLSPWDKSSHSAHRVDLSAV

[2] = target: T1, GPR133 (ADGRD1) C-terminal fragment …; assay: pull-down

NTF/CTF ratio in the elution (densitometry) [1]: 0.17
NTF/CTF ratio in the elution (densitometry) [2]: 1
B1: GPR133 (ADGRD1) N-terminal fragment (NTF), from C-terminally TwinStrep-tagged wild-type GPR133 (domain or fragment, human)
chain: VYSRSQDHPGFQVLASASHYWPLENVDGIHELQDTTGDIVEGKVNKGIYLKEEKGVTLLYYGRYNSSCISKPEQCGPEGVTFSFFWKTQGEQSRPIPSAYGGQVISNGFKVCSSGGRGSVELYTRDNSMTWEASFSPPGPYWTHVLFTWKSKEGLKVYVNGTLSTSDPSGKVSRDYGESNVNLVIGSEQDQAKCYENGAFDEFIIWERALTPDEIAMYFTAAIGKHALLSSTLPSLFMTSTASPVMPTDAYHPIITNLTEERKTFQSPGVILSYLQNVSLSLPSKSLSEQTALNLTKTFLKAVGEILLLPGWIALSEDSAVVLSLIDTIDTVMGHVSSNLHGSTPQVTVEGSSAMAEFSVAKILPKTVNSSHYRFPAHGQSFIQIPHEAFHRHAWSTVVGLLYHSMHYYLNNIWPAHTKIAEAMHHQDCLLFATSHLISLEVSPPPTLSQNLSGSPLITVHLKHRLTRKQHSEATNSSNRVFVYCAFLDFSSGEGVWSNHGCALTRGNLTYSVCRCTHL
modifications: glycosylated (nine N-linked glycosylation sites predicted within the NTF; positions not given)
